In data set [1] the target is T1, untagged SPD-5 aa 101-473, not phosphorylated (C. elegans, UniProt P91349 101-473).
T1 construct: source: E. coli BL21(DE3) pLysS, purified (glutathione agarose, cleaved off GST)
T1 sequence (looked up): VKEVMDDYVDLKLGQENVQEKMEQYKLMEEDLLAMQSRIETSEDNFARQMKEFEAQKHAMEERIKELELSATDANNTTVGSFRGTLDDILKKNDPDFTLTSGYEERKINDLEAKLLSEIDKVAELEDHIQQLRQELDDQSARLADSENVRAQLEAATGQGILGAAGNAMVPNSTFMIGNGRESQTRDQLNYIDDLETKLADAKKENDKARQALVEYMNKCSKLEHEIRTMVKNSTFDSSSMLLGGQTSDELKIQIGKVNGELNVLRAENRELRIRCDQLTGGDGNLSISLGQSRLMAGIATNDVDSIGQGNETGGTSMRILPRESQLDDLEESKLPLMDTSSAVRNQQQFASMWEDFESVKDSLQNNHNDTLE
Put plainly: pull-down; MBP pull-down: purified SPD-5 fragments mixed at 2.0 μM with or without 500 nM PLK1(T194D) in kinase buffer 1 h at 23°C; then 75 nM each with 2 μg anti-MBP antibody in lysis buffer 2 h at 4°C and protein A beads 1 h at 4°C; five washes; immunoblot or Coomassie. The conditions noted are these: both partners purified. (In general: In western blotting, separated proteins are transferred to a membrane and probed.)

Data set [2] deals with the molecule itself. Put plainly: SEC-MALS; Superose 6 increase 10/300 or Superdex 200 increase 10/300 in 20 mM Tris-HCl pH 7.5, 50 mM NaCl, 5 mM EGTA, 2 mM MgCl2, 1 mM DTT; 120 μL of ~2.0 mg/ml protein loaded; with or without PLK1 phosphorylation. Background: In gel filtration, larger molecules generally elute earlier.

B1: MBP-6His-HA (M6HH)-tagged SPD-5 aa 1-101, not phosphorylated (domain or fragment, C. elegans, UniProt P91349 1-101, looked up)
chain: MEDNSVLNEDSNLEHVEGQPRRSMSQPVLNVEGDKRTSSTSATQQQVLSGAFSSADVRSIPIIQTWEENKALKTKITILRGELQMYQRRYSEAKEASQKRV
notes: also called PRGB1; source: E. coli BL21(DE3) pLysS, purified (Ni-NTA)
Regarding B1, the binding result in data set [1] is recorded as “binds”.

B2: untagged SPD-5 aa 1-473, not phosphorylated (domain or fragment, C. elegans, UniProt P91349 1-473, looked up)
chain: MEDNSVLNEDSNLEHVEGQPRRSMSQPVLNVEGDKRTSSTSATQQQVLSGAFSSADVRSIPIIQTWEENKALKTKITILRGELQMYQRRYSEAKEASQKRVKEVMDDYVDLKLGQENVQEKMEQYKLMEEDLLAMQSRIETSEDNFARQMKEFEAQKHAMEERIKELELSATDANNTTVGSFRGTLDDILKKNDPDFTLTSGYEERKINDLEAKLLSEIDKVAELEDHIQQLRQELDDQSARLADSENVRAQLEAATGQGILGAAGNAMVPNSTFMIGNGRESQTRDQLNYIDDLETKLADAKKENDKARQALVEYMNKCSKLEHEIRTMVKNSTFDSSSMLLGGQTSDELKIQIGKVNGELNVLRAENRELRIRCDQLTGGDGNLSISLGQSRLMAGIATNDVDSIGQGNETGGTSMRILPRESQLDDLEESKLPLMDTSSAVRNQQQFASMWEDFESVKDSLQNNHNDTLE
notes: also called SPD-5 N-terminus; source: E. coli BL21(DE3) pLysS, purified (glutathione agarose, cleaved off GST)
Usually stoichiometry N stands for the number of molecules, sites or subunits per partner or assembly. For B2, the “stoichiometry N” value in data set [2] came to 2.

B3: MBP-6His-HA (M6HH)-tagged SPD-5 aa 1-473, not phosphorylated (domain or fragment, C. elegans, UniProt P91349 1-473, looked up)
chain: B2 chain
notes: source: E. coli BL21(DE3) pLysS, purified (Ni-NTA)
For B3, in data set [2], the “stoichiometry N” value amounted to 2.

B4: untagged SPD-5 aa 1-473, PLK1-phosphorylated (domain or fragment, C. elegans, UniProt P91349 1-473, looked up)
chain: B2 chain
modifications: phosphorylated in vitro by PLK1(T194D); sites not all mapped (predicted PLK1 sites S5, S11, S170, T178, T198, T274, T335, S339, S340)
notes: source: E. coli BL21(DE3) pLysS, purified (glutathione agarose, cleaved off GST); incubated with PLK1-6His and ATP
B4: the “stoichiometry N” value in data set [2] was found to be 2.

B5: MBP-6His-HA (M6HH)-tagged SPD-5 aa 1-345, not phosphorylated (domain or fragment, C. elegans, UniProt P91349 1-345, looked up)
chain: MEDNSVLNEDSNLEHVEGQPRRSMSQPVLNVEGDKRTSSTSATQQQVLSGAFSSADVRSIPIIQTWEENKALKTKITILRGELQMYQRRYSEAKEASQKRVKEVMDDYVDLKLGQENVQEKMEQYKLMEEDLLAMQSRIETSEDNFARQMKEFEAQKHAMEERIKELELSATDANNTTVGSFRGTLDDILKKNDPDFTLTSGYEERKINDLEAKLLSEIDKVAELEDHIQQLRQELDDQSARLADSENVRAQLEAATGQGILGAAGNAMVPNSTFMIGNGRESQTRDQLNYIDDLETKLADAKKENDKARQALVEYMNKCSKLEHEIRTMVKNSTFDSSSMLLGG
notes: as for B3
With B5, the “stoichiometry N” value in data set [2] came to 2.

The values above are taken from paper doi:10.1101/2025.11.20.689565, “Phosphorylation remodels the mitotic centrosome matrix to generate bipartite γ-tubulin complex docking sites” (bioRxiv, 2025).
